Patent US7183065

What was measured:
[1] = biological target: histone H1 peptide SEQ ID NO: 17 (human); experiment: ELISA on coated peptide; rFab at 1.0, 3.0 and 10.0 µg/ml
[2] = biological target: histone H1 peptide SEQ ID NO: 20 (human); experiment: as above

B1: NANUC-2 (Fab)
chain 1: VKLLEQSGGGVVQPGKSLRLSCAASGFTFRNYGMHWVRQAPGKGLEWVAGISSDGRKKKYVDSVKGRFTISRDKSKNTLYLQMNSLRAEDTAVYYCAKLSRAGGFDIWGQGTMVTVSS
chain 2: AELTQSPGTLSLFPGERATLSCRASQRISTSFLAWYQQKPGQSPRLLIFDASTRAPGIPDRFSASWSGTDFTLTISRLEPEDFAVYYCQHYGGSPWTFGQGTKVEIK
- OD405 [1]: 0.25 OD405
- OD405 [2]: 0.5 OD405
